Assay results from publication PMC5296656.

Target: RpL4 (as it stands in the Acl4·RpL4 complex) (not stated (S. cerevisiae or C. thermophilum cDNA cloned))
Experiment: SEC; Superdex 200 10/300 GL, 20 mM TRIS pH 8.0, 100 mM NaCl, 5 mM DTT; pre-incubation 1 h at 4 °C; fractions on SDS-PAGE, Coomassie

Acl4 (untagged, purified) (natural protein)
stoichiometry N (Acl4 per RpL4): 2
